What all share (experiment): flow cytometry on cells
What all share (settings): one partner purified
Background: Flow cytometry measures light scatter and fluorescence of single cells or particles in a stream.

For test [1], the target named is T1, SARS‐CoV‐2 spike membrane protein of the Delta variant (B.1.617.2) (SARS-CoV-2, Delta variant B.1.617.2, strain).
T1 construct: also called Delta spike protein

Test [2] has as its target T2, SARS‐CoV‐2 spike membrane protein of the Wuhan‐Hu‐1 strain (SARS-CoV-2 Wuhan-Hu-1 (QHD43416.1), UniProt P0DTC2).
T2 construct: source: HEK293, transiently cotransfected (PEI) with a GFP plasmid, on the cell surface

Test [3] deals with T3, SARS‐CoV‐2 spike membrane protein of the Omicron variant (B.1.1.529) (SARS-CoV-2, Omicron variant B.1.1.529, …, strain).
T3 construct: also called Omicron spike protein

Experimental findings from PMC9087419 (European Journal of Immunology, 2022) are described below.

B1: LY‐CoV555 (Bamlanivimab) (antibody, V domains shown)
VH: QVQLVQSGAEVKKPGSSVKVSCKASGGTFSNYAISWVRQAPGQGLEWMGRIIPILGIANYAQKFQGRVTITADKSTSTAYMELSSLRSEDTAVYYCARGYYEARHYYYYYAMDVWGQGTAVTVSS
VL: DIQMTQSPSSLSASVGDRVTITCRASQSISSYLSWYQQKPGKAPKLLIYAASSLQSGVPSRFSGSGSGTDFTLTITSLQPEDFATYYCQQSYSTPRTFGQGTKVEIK
As to B1, the MdFI in test [1] amounted to 40000; in test [2], 355000.

B2: BMS‐986414 (C135) (antibody, V domains shown)
VH: QVQLVESGGGVVQPGRSLRLSCAASGFTFSSYAMHWVRQAPGKGLEWVAVIPFDGRNKYYADSVTGRFTISRDNSKNTLYLQMNSLRAEDTAVYYCASSSGYLFHSDYWGQGTLVTVSS
VL: DIQMTQSPSTLSASVGDRVTITCRASQSISNWLAWFQQKPGKAPKLLIYEASSLESGVPSRFSGSGSGTEFTLTISSLQPDDFATYYCQQYNSYPWTFGQGTKVEIK
In test [1], B2 gave a MdFI of 666000.

B3: REGN10933 (Casirivimab) (antibody, V domains shown)
VH: QVQLVESGGGLVKPGGSLRLSCAASGFTFSDYYMSWIRQAPGKGLEWVSYITYSGSTIYYADSVKGRFTISRDNAKSSLYLQMNSLRAEDTAVYYCARDRGTTMVPFDYWGQGTLVTVSS
VL: DIQMTQSPSSLSASVGDRVTITCQASQDITNYLNWYQQKPGKAPKLLIYAASNLETGVPSRFSGSGSGTDFTFTISGLQPEDIATYYCQQYDNLPLTFGGGTKVEIK
In the case of B3, the MdFI in test [3] is 103000; in test [1] it was 148000; in test [2], 236000.

B4: BMS‐986413 (C144) (antibody, V domains shown)
VH: EVQLVESGGGLIQPGGSLRLSCAASGFTVSNNYMSWVRQAPGKGLEWVSVIYSGGSTYYADSVKGRFTISRDKSKNTLYLQMNRLRAEDTAVYYCAREGEVEGYNDFWSGYSRDRYYFDYWGQGTLVTVSS
VL: QSALTQPASVSGSPGQSITISCTGTSSDVGGYNYVSWYQQHPGKAPKLMIYDVSNRPSGVSNRFSGSKSGNTASLTISGLQAEDEADYYCSSYTSSSTRVFGTGTKVTVL
With B4, the MdFI in test [1] came out at 408000; in test [2], 340000.

B5: REGN10987 (Imdevimab) (antibody, V domains shown)
VH: QVQLVESGGGVVQPGRSLRLSCAASGFTFSNYAMYWVRQAPGKGLEWVAVISYDGSNKYYADSVKGRFTISRDNSKNTLYLQMNSLRTEDTAVYYCASGSDYGDYLLVYWGQGTLVTVSS
VL: QSALTQPASVSGSPGQSITISCTGTSSDVGGYNYVSWYQQHPGKAPKLMIYDVSKRPSGVSNRFSGSKSGNTASLTISGLQSEDEADYYCNSLTSISTWVFGGGTKLTVL
In the case of B5, the MdFI in test [1] came out at 471000; in test [2], 371000.

B6: 3467 (antibody, V domains shown)
VH: QVQLQESGPGLVKPSETLSLTCTVSGGSISSYHWNWIRQPPGKGLEWIGYIYYSGNTNYNPSLKSRVSISTDTSKNQFSLKLSSVTAADTAVYYCVREMRRGYSGYDYWDLYAFDIWGQGTMVTVSS
VL: DIQLTQSPSFLSASVGDRVTITCRASQGISSYLAWYQQKPGKAPNLLIYAASTLQSGVPSRFSGSGSGTEFTLTISSLQPEDFATYYCQQLNSYPHTFGQGTKLEIK
notes: also called TRIANNI mouse‐derived antibody 3467
For the molecule B6, the MdFI in test [3] came to 25000; in test [1] it was 31000; in test [2], 165000.

B7: S2H97 (antibody, V domains shown)
VH: QVRLVQSGAEVKKSGESLKISCKGSGYSFTSYWIGWVRQMPGKGLEWMGIIYPGDSDTRYSPSFQGQVTISADKSISTVYLQWSSLKASDTAMYYCARQWSHYTYDYYYWGQGTLVTISS
VL: QSVLTQPASVSGSPGQSITISCTGISSDVGGYNSVSWYQQHPGKAPKLMIYDVTNRPSGVSNRFSGSKSGNTASLTISGLQAEDEADYYCSSYTSSSTPPYVFGTGTKVSVL
As for B7, the MdFI in test [3] was 296000; in test [1], 74000; in test [2], 58000.

B8: AZD8895 (Tixagevimab) (antibody, V domains shown)
VH: QMQLVQSGPEVKKPGTSVKVSCKASGFTFMSSAVQWVRQARGQRLEWIGWIVIGSGNTNYAQKFQERVTITRDMSTSTAYMELSSLRSEDTAVYYCAAPYCSSISCNDGFDIWGQGTMVTVSS
VL: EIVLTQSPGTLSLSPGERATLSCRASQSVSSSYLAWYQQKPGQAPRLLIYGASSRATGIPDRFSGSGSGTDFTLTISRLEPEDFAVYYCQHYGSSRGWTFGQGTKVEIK
Consider B8, for which the values for the MdFI in test [3], in test [1] and in test [2] were 73000, 59000 and 250000, respectively.

B9: CT‐P59 (Regdanivimab) (antibody, V domains shown)
VH: QITLKESGPTLVKPTQTLTLTCSFSGFSLSTSGVGVGWIRQPPGKALEWLALIDWDDNKYHTTSLKTRLTISKDTSKNQVVLTMTNMDPVDTATYYCARIPGFLRYRNRYYYYGMDVWGQGTTVTVSS
VL: ELVLTQPPSVSAAPGQKVTISCSGSSSNIGNNYVSWYQQLPGTAPKLLIYDNNKRPSGIPDRFSGSKSGTSATLGITGLQTGDEADYYCGTWDSSLSAGVFGGGTELTVL
notes: also called Regdanvimab; Regkirona
B9: the MdFI is 233000 in test [1] and 131000 in test [2].

B10: 8D2 (antibody, V domains shown)
VH: EVQLVESGGGLVQPGGSLRLSCAASGFTFSSYWMSWVRQAPGKGLEWVANINQDGSEKYYVDSVKGRFTISRDNAKNSLYLQVNSLRAEDTAVYYCARDWDYDILTGSWFGAFDIWGQGTTVTVSS
VL: DIQMTQSPSSLSASVGDRVTITCRASQGIRNDLGWYQQKPGKAPKRLIYAASSLQSGVPSRFSGSGSGTEFTLTISSLQPEDFATYYCLQHNSYPLTFGGGTKVEIK
With B10, the MdFI in test [2] came out at 37000.

B11: LY‐CoV016 (Etesevimab) (antibody, V domains shown)
VH: EVQLVESGGGLVQPGGSLRLSCAASGFTVSSNYMSWVRQAPGKGLEWVSVIYSGGSTFYADSVKGRFTISRDNSMNTLFLQMNSLRAEDTAVYYCARVLPMYGDYLDYWGQGTLVTVSS
VL: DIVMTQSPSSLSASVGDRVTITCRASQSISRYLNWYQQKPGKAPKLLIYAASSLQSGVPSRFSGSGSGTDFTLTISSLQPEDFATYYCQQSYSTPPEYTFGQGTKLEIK
For the molecule B11, the figures for the MdFI in test [1] and in test [2] were 192000 and 282000, respectively.

B12: AZD1061 (Cilgavimab) (antibody, V domains shown)
VH: EVQLVESGGGLVKPGGSLRLSCAASGFTFRDVWMSWVRQAPGKGLEWVGRIKSKIDGGTTDYAAPVKGRFTISRDDSKNTLYLQMNSLKTEDTAVYYCTTAGSYYYDTVGPGLPEGKFDYWGQGTLVTVSS
VL: not shown
Consider B12, for which the MdFI was 101000 in test [3] and 468000 in test [1].
